# Tested on: MS2 coat protein
# Assay: apparent KD of MS2 coat protein; higher = weaker reporter binding
# Details: Eterna round: R107; input ligand: arginine 13.2 mM
# Outline: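 Designed RNA switches were transcribed on-chip from Illumina sequencing clusters. SNAP-549-labelled MS2 coat protein was titrated onto them in twofold steps from 0.7 or 1.5 nM to 3 µM in 100 mM Tris-HCl pH 7.5, 80 mM KCl, 4 mM MgCl2, either without or with constant ligand. Apparent KD reflects the per-design median of normalised cluster binding-curve fits.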
row,Sequence,apparent KD of MS2 coat protein [nM]
1,UGUAUGUGAUCUGAUACCAGACGUGUAAACCUGAGGAUCACCCUGGUAAGGCGAAAGCCAGUCCCUUGGCAGCAGAUCGCAUACU,47.7

# Same assay, conditions: Eterna round: R107; input ligand: none
row,Sequence,apparent KD of MS2 coat protein [nM]
1,UUUAAUUUAAUAGAUACCAGCUAAUAAUAAUCCCGGAGGACAUGAGGAUCACCCAUGUGGAGCCCUUGGCAGCUAAAAUAAAUUU [Exclusion - Theophylline B],32.9
2,UGAUCCUACAGAGAUACCAGUGCCGCUGAGUGACCAGACACAUGAGGAUCACCCAUGUAACACCCUUGGCAGCUCAACUAGAGGG [Same State Theophylline B GF19],18.4
3,AGCACUGUGACGGCCGCCACUACAUAAAUUGGGUGGUCAGGUUCAUUACAUGAGGAUCACCCAUGUAGGACCGGGUCUCAGUGCA [Omei Trp Exc B A v8],11.4
4,UGUAUGUGAUCUGAUACCAGUCCAACUGGUAAAGCAUGAGGAUCACCCAUGCAAAAUUGGGACCCUUGGCAGCAGAUCGCAUACU,264
5,UACUUGCUGACGGCCGCCACUAGAACAUGAGGAUCACCCAUGUAUUCUAGUCGUCAUGGGUGGACUAGGACCGGGUCAGCAAGAU [(Trp1)-(Ms2)-(T)'-(M)'-(Trp2)_Design8],33.8
6,AGAGAGGCGCAUGAUACCAGCUUGGCCUAACAUGAGGAUCACCCAUGUCAAUGGGCCUUAAGCCCUUGGCAGCAUAGGGUGUCCU [Xeestixexe],72.1
7,AUGUUGGUCUGAAGGAGCGCGAUAACAUGAGGAUCACCCAUGUUAAAUGGUACAUGAUACUCGCAGGUAGGUCGCAGUACGACAA [Same State Arginine B GF 13],20.7
8,UUGUGUUUAUUGGUUUAGCUAUUAUGGUUGCGAGGACCGGUACGGCCGCCACUCGAUGGAACAUGAGGAUCACCCAUGUGAGGAA [JR_ExcTryptoA_Sub013],28
9,UGACAUGAGGAUCACCCAUGUGUAAGAGAAGGAGCGGCCGGAAGGCCAGGUAGGUCGCUCAGGUAGCGUGAGGAUCACCCGUGUG [big_hook],161
10,AGUUAAAUAUGUUAAUAACUAUUUACUGAAGGAGCGUGUUUUUACACAGGUAGGUCGCAGUGACAUGAGGAUCACCCAUGUAGUA [JR_SSArginiA_Sub012],37.5
11,UAACAUGAGGAUCACCCAUGUUUAGAUGAACGAGGACCGGUACGGCCGCCACUCGAUAAGUGGAAAGAGCGAGGGAUUGUAUGCU [Same State Trp A GF4],12.4
12,UUGGGUUUGUGAAGGAGCGGGAAUGUUUUAUAGUGGAUCCUAACAUGAGGAUCACCCAUGUCCCAGGUAGGUCGCGCGGGUUUGG [12.S],64.8
13,CGCCGCGCGGGAAGGAGCGCGAUUACAUAACAUGAGGAUCACCCAUGUAAGAAAUUAUUCAUGCAGGUAGGUCGCCCGCGCGGCG [Same State Arginine B GF 5],22.3
14,ACAUGAGGAUCACCCAUGUAUCAACGGGAAGGAGCGCCAAACAAGGCAGGUAGGUCGCCCACAUGAGGAUCACCCGUGUGUUGGG [Exclusion Arginine A GF 30],37.8
15,GGGCCCGGGCCCGCGCGGGCCCGGGCCCAACGAGGACCGGUACGGCCGCCACUCGAACGAGUGGGUACAUGAGGAUCACCCAUGU [Baa],30.7
16,GCCAUCGGCGGAAGCCGAUGGGAUACAGAAGGAGCGUAGGAAACUACAGGUAGGUCGCUGGACAUGAGGAUCACCCAUGUGAUAG [SSAA #11],24
17,UGUAUGUGAUCUGAUACCAGACGUGUAAACCUGAGGAUCACCCUGGUAAGGCGAAAGCCAGUCCCUUGGCAGCAGAUCGCAUACU,49

# Same assay, conditions: Eterna round: R107; input ligand: theophylline 20 uM
row,Sequence,apparent KD of MS2 coat protein [nM]
1,AAAUACAUGAGGAUCACCCAUGUCAAUAAUCGAGGACCGGUACGGCCGCCACUCGAUCGGCCAAGAAAAUGAAAGAUGAUCUCUA [theeternabot_sameState_MS2_Trp_A_8],37.5
2,GAACAUGAGGAUCACCCAUGUAAAACAGAUACCAGUGAUAUAAUACACCCUUGGCAGCUGAAGCUGAAUAAUAAUUCCCUCAAGC [Same State Theophylline A GF1],20
3,UUUAAUUUAAUAGAUACCAGCUAAUAAUAAUCCCGGAGGACAUGAGGAUCACCCAUGUGGAGCCCUUGGCAGCUAAAAUAAAUUU [Exclusion - Theophylline B],63.7
4,UGAUCCUACAGAGAUACCAGUGCCGCUGAGUGACCAGACACAUGAGGAUCACCCAUGUAACACCCUUGGCAGCUCAACUAGAGGG [Same State Theophylline B GF19],18.7
5,CCCGACGAGCCUGAGAUUAAGUAAGCGGAUACCAGAGAUAGGUAGCUCCCUUGGCAGCCGUGGACAUGAGGAUCACCCAUGUCAC [theeternabot_exclusion_MS2_Theo_A_22],13.5
6,AGCACUGUGACGGCCGCCACUACAUAAAUUGGGUGGUCAGGUUCAUUACAUGAGGAUCACCCAUGUAGGACCGGGUCUCAGUGCA [Omei Trp Exc B A v8],20.6
7,AGAUCUUUCGAAAGAAGGAUCUUGUCUGAUACCAGAGACGAAAGUCUCCCUUGGCAGCAGUGCCAACAUGAGGAUCACCCAUGUA [Theophylline A 12],24.7
8,UUUGAUAUGACAGAUACCAGCGUGUUGUUGAACAUGAGGAUCACCCAUGUAGUGAUCAAGCGCCCUUGGCAGCUGGUGUGUUAGG [7.P],323
9,GGAUUCAACUCGGCCGCCACUGGUGAUCCUAAUGUACAUGAGGAUCACCCAUGUACAUGAGAAUACAGGACCGGGAGAUAAGCAA [Tryptophan B V2 (+4A)],26.5
10,UCUACAUGAGGAUCACCCAUGUGCCAUGAUACCAGACAUGAAAAUGUCCCUUGGCAGCAUGGGUAGCGCAUCCGAAAGGAUGCGU [#06 SameState-TheophyllineA],155
11,AACAAUGCACAUGAGGAUCACCCAUGUGAUACCAGCCGCAACAUAGGCCCUUGGCAGCAUGUGGGUAUAGAACGAUUUGGCUGAA [Xeanle],85.3
12,UGUAUGUGAUCUGAUACCAGUCCAACUGGUAAAGCAUGAGGAUCACCCAUGCAAAAUUGGGACCCUUGGCAGCAGAUCGCAUACU,213
13,UUGGAUGAAGGAGUGAAAAGCAACUCAGAUACCAGUCUGAGUAAUGACCCUUGGCAGCUGAGAACAUGAGGAUCACCCAUGUGAC [theeternabot_exclusion_MS2_Theo_A_34],15.5
14,UCUGGGUGCGCAAGGACCUGGAGUUGCGAUACCAGCACGGUAACGUGCCCUUGGCAGCGCACAUGAGGAUCACCCAUGUGGUGUU [#1 Exclusion - Theophylline A Attempt #18 (HarryS)],247
15,GGCACAUAGUCGGCCGCCACUAGGGUGUAGUGGAAUAACAUGAGGAUCACCCAUGUAUUUGGGACUAGGACCGGGACUAUGUGCC [Leopard],40.4
16,UACUUGCUGACGGCCGCCACUAGAACAUGAGGAUCACCCAUGUAUUCUAGUCGUCAUGGGUGGACUAGGACCGGGUCAGCAAGAU [(Trp1)-(Ms2)-(T)'-(M)'-(Trp2)_Design8],41.8
17,AGAGAGGCGCAUGAUACCAGCUUGGCCUAACAUGAGGAUCACCCAUGUCAAUGGGCCUUAAGCCCUUGGCAGCAUAGGGUGUCCU [Xeestixexe],186
18,GGAUGGAACUCGGCCGCCACUGGUGAUCCUAAUGUACAUGAGGAUCACCCAUGUACAUGAGAAGAUAGGACCGGGAGAUAACAUG [V5],31.2
19,AUGUUGGUCUGAAGGAGCGCGAUAACAUGAGGAUCACCCAUGUUAAAUGGUACAUGAUACUCGCAGGUAGGUCGCAGUACGACAA [Same State Arginine B GF 13],29.7

# Reference: the supplement of paper PMC9170038
